For 20 molecules, binding signal results are on record in publication PMC6555819, “Comprehensive study of nuclear receptor DNA binding provides a revised framework for understanding receptor specificity”.

One data set deals with RARb:RXRa (Homo sapiens, UniProt P10826;P19793 full;full). Description: no ligand; PBM; 270 nM : 90 nM RXRa; PBS pH 7.4, 2% milk, 0.02% Triton X-100, 1 mM DTT, BSA, 0.4 mg/ml salmon testes DNA. The conditions noted are these: tags: His kept;His cleaved; copies: 1;1; label: surface-attached array probe. The essentials: (§1)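 Binding buffer was PBS pH 7.4 with 2% milk, 0.02% Triton X-100, 1 mM DTT, 0.2 mg/mL BSA and 0.4 mg/ml salmon testes DNA. In it, ligand-free nuclear receptor dimers were incubated 1 h on custom Agilent 4×180K protein-binding microarrays carrying double-stranded probes. Antibodies against each partner (one per run) detected binding, and z-scores were calculated against random background probes after regression normalization of scanned fluorescence.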
RARb:RXRa, sequence (P10826 whole entry, chain 1 of 2): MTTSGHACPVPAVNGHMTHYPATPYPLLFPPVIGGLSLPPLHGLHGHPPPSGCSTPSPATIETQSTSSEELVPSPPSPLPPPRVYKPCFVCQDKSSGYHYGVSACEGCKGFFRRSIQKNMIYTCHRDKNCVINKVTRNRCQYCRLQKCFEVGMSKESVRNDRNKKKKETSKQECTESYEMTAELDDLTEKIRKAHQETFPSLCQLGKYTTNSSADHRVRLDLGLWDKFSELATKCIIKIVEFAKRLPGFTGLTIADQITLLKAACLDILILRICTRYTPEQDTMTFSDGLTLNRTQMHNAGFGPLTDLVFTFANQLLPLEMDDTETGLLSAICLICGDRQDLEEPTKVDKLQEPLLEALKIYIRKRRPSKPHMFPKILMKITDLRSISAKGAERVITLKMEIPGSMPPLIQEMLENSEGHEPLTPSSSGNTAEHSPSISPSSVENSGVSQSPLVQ
RARb:RXRa, sequence (P19793 whole entry, chain 2 of 2): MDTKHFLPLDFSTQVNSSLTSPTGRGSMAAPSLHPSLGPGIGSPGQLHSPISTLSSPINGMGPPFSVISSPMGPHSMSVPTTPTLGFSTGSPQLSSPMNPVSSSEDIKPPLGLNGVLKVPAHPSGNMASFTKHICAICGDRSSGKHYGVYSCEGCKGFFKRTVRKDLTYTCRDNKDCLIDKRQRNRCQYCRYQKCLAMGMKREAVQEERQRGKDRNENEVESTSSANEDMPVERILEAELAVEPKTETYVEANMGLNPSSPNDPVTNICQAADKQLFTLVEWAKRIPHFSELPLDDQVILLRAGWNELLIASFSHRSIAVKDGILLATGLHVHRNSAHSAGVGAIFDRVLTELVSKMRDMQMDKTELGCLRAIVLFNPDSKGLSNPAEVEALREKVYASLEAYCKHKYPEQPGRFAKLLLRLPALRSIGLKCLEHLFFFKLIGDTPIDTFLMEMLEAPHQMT

The target of another data set is THRa:RXRa (Homo sapiens, UniProt P10827;P19793 full;full). The experiment in a line: no ligand; PBM; 90 nM : 90 nM RXRa; PBS pH 7.4, 2% milk, 0.02% Triton X-100, 1 mM DTT, BSA, 0.4 mg/ml salmon testes DNA. Particulars: tags: His kept;His cleaved; copies: 1;1; label: surface-attached array probe.
THRa:RXRa, sequence (P10827 other isoform, or with tags, fused parts or gaps, chain 1 of 2): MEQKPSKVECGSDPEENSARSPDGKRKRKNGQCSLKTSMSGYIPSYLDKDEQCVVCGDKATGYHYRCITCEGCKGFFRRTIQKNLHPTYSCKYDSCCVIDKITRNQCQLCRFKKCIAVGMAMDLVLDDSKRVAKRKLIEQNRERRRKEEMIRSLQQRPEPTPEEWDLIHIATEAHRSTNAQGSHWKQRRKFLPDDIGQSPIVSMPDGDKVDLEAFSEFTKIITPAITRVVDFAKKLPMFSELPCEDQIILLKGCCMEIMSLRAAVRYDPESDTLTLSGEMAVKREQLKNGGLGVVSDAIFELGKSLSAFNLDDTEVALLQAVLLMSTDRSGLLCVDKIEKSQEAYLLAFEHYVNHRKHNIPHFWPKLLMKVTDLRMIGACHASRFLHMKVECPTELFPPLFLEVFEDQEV
THRa:RXRa, sequence (P19793 whole entry, chain 2 of 2): as the sequence (P19793 whole entry, chain 2 of 2) above
The next data set deals with RXRa (Homo sapiens, UniProt P19793). The experiment in a line: no ligand; PBM; 180 nM; PBS pH 7.4, 2% milk, 0.02% Triton X-100, 1 mM DTT, BSA, 0.4 mg/ml salmon testes DNA. Particulars: tags: His cleaved; chain copies: 2; label: surface-attached array probe.
RXRa, sequence (P19793 whole entry): as the sequence (P19793 whole entry, chain 2 of 2) above
A further data set addresses LXRb:RXRa (Homo sapiens, UniProt P55055;P19793 full;full). The experiment in a line: no ligand; PBM; 270 nM : 90 nM RXRa; PBS pH 7.4, 2% milk, 0.02% Triton X-100, 1 mM DTT, BSA, 0.4 mg/ml salmon testes DNA. The conditions noted are these: tags: His kept;His cleaved; copies: 1;1; label: surface-attached array probe. The essentials:
as §1

The target in another data set is RARg:RXRa (Homo sapiens, UniProt P13631;P19793 full;full). The data set is described as above. The conditions noted are these: tags: His kept;His cleaved; copies: 1;1; label: surface-attached array probe. Summed up:
as §1

The target in the next data set is FXR:RXRa (Homo sapiens, UniProt Q96RI1;P19793 full;full). The data set is described as above. Particulars: tags: His kept;His cleaved; copies: 1;1; label: surface-attached array probe. Summed up:
as §1

The target in the next data set is VDR:RXRa (Homo sapiens, UniProt P11473;P19793 full;full). Described as above. The conditions noted are these: tags: His kept;His cleaved; copies: 1;1; label: surface-attached array probe. Summed up: as §1
VDR:RXRa, sequence (P11473 whole entry, chain 1 of 2): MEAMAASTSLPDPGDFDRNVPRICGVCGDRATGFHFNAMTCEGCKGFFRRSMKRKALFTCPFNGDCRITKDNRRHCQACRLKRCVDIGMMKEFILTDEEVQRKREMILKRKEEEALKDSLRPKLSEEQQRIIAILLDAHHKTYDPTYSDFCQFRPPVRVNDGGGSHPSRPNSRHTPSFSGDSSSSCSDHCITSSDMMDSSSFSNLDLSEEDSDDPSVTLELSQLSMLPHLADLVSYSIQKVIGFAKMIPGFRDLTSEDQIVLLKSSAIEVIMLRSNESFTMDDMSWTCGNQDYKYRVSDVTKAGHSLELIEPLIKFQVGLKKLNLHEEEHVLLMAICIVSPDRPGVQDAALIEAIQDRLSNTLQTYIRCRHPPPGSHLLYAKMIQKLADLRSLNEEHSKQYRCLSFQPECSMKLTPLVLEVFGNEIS
VDR:RXRa, sequence (P19793 whole entry, chain 2 of 2): as the sequence (P19793 whole entry, chain 2 of 2) above
In another data set the target is PPARa:RXRa (Homo sapiens, UniProt Q07869;P19793 full;full). The data set is described as above. Particulars: tags: GST kept;His cleaved; copies: 1;1; label: surface-attached array probe. Summed up: as §1
PPARa:RXRa, sequence (Q07869 whole entry, chain 1 of 2): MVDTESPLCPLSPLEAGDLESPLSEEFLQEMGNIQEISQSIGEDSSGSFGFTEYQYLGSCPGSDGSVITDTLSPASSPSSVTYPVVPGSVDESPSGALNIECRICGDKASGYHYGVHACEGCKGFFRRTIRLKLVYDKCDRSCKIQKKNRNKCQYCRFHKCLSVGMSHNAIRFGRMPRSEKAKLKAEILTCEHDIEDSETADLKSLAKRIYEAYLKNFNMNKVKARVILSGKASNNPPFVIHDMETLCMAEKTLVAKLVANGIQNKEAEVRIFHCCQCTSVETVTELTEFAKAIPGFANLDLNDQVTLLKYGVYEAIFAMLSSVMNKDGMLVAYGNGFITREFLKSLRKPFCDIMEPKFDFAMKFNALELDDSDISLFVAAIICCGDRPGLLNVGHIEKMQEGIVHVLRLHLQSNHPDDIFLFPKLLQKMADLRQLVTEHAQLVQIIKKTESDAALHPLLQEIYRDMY
PPARa:RXRa, sequence (P19793 whole entry, chain 2 of 2): as the sequence (P19793 whole entry, chain 2 of 2) above

LXRb:RXRa, sequence (P55055 whole entry, chain 1 of 2): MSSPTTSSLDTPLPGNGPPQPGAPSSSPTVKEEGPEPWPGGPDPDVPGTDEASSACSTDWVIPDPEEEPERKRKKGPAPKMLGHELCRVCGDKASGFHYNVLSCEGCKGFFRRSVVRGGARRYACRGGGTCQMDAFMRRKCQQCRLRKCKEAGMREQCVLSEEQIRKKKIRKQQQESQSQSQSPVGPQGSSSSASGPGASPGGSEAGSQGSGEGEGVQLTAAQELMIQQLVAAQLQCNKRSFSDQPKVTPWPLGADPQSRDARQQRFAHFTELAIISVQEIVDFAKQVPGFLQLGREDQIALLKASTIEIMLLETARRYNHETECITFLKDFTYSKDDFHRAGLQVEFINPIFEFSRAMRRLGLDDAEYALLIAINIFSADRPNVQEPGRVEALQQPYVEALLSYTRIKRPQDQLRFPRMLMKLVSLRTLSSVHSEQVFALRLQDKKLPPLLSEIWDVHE
LXRb:RXRa, sequence (P19793 whole entry, chain 2 of 2): as the sequence (P19793 whole entry, chain 2 of 2) above
RARg:RXRa, sequence (P13631 whole entry, chain 1 of 2): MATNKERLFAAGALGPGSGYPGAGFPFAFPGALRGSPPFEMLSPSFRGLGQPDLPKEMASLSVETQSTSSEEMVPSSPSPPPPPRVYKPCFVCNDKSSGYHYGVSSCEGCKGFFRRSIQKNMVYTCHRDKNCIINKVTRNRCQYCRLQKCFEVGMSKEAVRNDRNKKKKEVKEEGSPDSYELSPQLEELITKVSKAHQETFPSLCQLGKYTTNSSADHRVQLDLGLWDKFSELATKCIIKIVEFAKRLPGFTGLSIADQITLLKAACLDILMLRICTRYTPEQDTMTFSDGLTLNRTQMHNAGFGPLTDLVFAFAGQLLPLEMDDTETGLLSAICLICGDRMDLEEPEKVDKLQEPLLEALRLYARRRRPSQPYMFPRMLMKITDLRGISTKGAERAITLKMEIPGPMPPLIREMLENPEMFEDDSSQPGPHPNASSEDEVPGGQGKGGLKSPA
RARg:RXRa, sequence (P19793 whole entry, chain 2 of 2): as the sequence (P19793 whole entry, chain 2 of 2) above
FXR:RXRa, sequence (Q96RI1 whole entry, chain 1 of 2): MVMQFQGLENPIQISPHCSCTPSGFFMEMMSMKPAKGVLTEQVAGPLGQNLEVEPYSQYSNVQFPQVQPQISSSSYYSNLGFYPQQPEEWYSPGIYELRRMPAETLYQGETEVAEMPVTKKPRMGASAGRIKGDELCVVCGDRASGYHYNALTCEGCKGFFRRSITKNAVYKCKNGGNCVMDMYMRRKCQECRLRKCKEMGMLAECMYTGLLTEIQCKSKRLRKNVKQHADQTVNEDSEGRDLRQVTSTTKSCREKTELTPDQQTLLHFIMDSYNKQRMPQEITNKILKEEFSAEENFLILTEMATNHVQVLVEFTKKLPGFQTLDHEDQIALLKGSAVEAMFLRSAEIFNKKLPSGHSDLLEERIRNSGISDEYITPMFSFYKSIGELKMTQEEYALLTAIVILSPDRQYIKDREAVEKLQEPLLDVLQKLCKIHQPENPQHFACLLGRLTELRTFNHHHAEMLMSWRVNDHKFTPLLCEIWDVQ
FXR:RXRa, sequence (P19793 whole entry, chain 2 of 2): as the sequence (P19793 whole entry, chain 2 of 2) above

B1: NRC3_random_hg19_121_o1 (dsDNA)
DNA 1: GCGCAGTAGGCACAGGGACTGTGTACAGATCTACACGCGATTGACAGCGTAGAATGAAGG
DNA 2: CCTTCATTCTACGCTGTCAATCGCGTGTAGATCTGTACACAGTCCCTGTGCCTACTGCGC
In the case of B1, the binding signal is -1.18 PBM z-score against 500 random probes with RARb:RXRa and -2.89 PBM z-score against 500 random probes with THRa:RXRa.

B2: NRC3_random_hg19_173_o1 (dsDNA)
DNA 1: GCATCCACCACCATGCAGAGGCAAGAATGGTCAGGCGCGATTGACAGCGTAGAATGAAGG
DNA 2: CCTTCATTCTACGCTGTCAATCGCGCCTGACCATTCTTGCCTCTGCATGGTGGTGGATGC
As for B2, the figures for the binding signal in the data set with RXRa and with THRa:RXRa were 0.16 PBM z-score against 500 random probes and 0.01 PBM z-score against 500 random probes, respectively.

B3: NRC3_random_hg19_16_o1 (dsDNA)
DNA 1: GCGTTGTATCGTGTTATGTATGAGAGTCAGGATCTTGCGATTGACAGCGTAGAATGAAGG
DNA 2: CCTTCATTCTACGCTGTCAATCGCAAGATCCTGACTCTCATACATAACACGATACAACGC
B3: the binding signal with LXRb:RXRa was 0.41 PBM z-score against 500 random probes; with THRa:RXRa it was 0.16 PBM z-score against 500 random probes.

B4: NRC3_random_hg19_406_o1 (dsDNA)
DNA 1: GCGAAGAACCTCCAAACTGTTCTCCATGGTAGTTGTGCGATTGACAGCGTAGAATGAAGG
DNA 2: CCTTCATTCTACGCTGTCAATCGCACAACTACCATGGAGAACAGTTTGGAGGTTCTTCGC
Take B4: the binding signal with RARg:RXRa is -0.45 PBM z-score against 500 random probes; with FXR:RXRa it was -0.19 PBM z-score against 500 random probes; in the data set with RXRa, -0.04 PBM z-score against 500 random probes; with THRa:RXRa it was -0.25 PBM z-score against 500 random probes.

B5: NRC3_random_hg19_285_o1 (dsDNA)
DNA 1: GCTTACTCTGTTGCACTTTGGAAGAAACAAATGTAAGCGATTGACAGCGTAGAATGAAGG
DNA 2: CCTTCATTCTACGCTGTCAATCGCTTACATTTGTTTCTTCCAAAGTGCAACAGAGTAAGC
In the case of B5, the binding signal with RARb:RXRa is 0.15 PBM z-score against 500 random probes; with THRa:RXRa it was 0.3 PBM z-score against 500 random probes.

B6: NRC3_random_hg19_222_o1 (dsDNA)
DNA 1: GCGAAGCATTCTAAGAAACTTCTTCGTGATGTGTGTGCGATTGACAGCGTAGAATGAAGG
DNA 2: CCTTCATTCTACGCTGTCAATCGCACACACATCACGAAGAAGTTTCTTAGAATGCTTCGC
Turning to B6, the binding signal with RARg:RXRa was -0.49 PBM z-score against 500 random probes; with RARb:RXRa, -1.15 PBM z-score against 500 random probes; with THRa:RXRa, -0.74 PBM z-score against 500 random probes.

B7: NRC3_random_hg19_423_o1 (dsDNA)
DNA 1: GCATCAAGTGATCCTCCCACCTCAGCCTTCCAAGTCGCGATTGACAGCGTAGAATGAAGG
DNA 2: CCTTCATTCTACGCTGTCAATCGCGACTTGGAAGGCTGAGGTGGGAGGATCACTTGATGC
In the case of B7, the binding signal is 0.02 PBM z-score against 500 random probes with RARb:RXRa and 0.07 PBM z-score against 500 random probes with THRa:RXRa.

B8: NRC3_wobSeed141_DR5_T11G_o1 (dsDNA)
DNA 1: GCAGTCAAAGGTCAGGACGAGGTAACGTAAAGCACGGCGATTGACAGCGTAGAATGAAGG
DNA 2: CCTTCATTCTACGCTGTCAATCGCCGTGCTTTACGTTACCTCGTCCTGACCTTTGACTGC
As to B8, the values for the binding signal with RARg:RXRa, in the data set with RARb:RXRa and in the data set with THRa:RXRa were 7.48 PBM z-score against 500 random probes, 5.96 PBM z-score against 500 random probes and 4.79 PBM z-score against 500 random probes, respectively.

B9: NRC3_random_hg19_74_o1 (dsDNA)
DNA 1: GCAGAACAGCTGAGTGGCTCAAGACCGCAGAGGAACGCGATTGACAGCGTAGAATGAAGG
DNA 2: CCTTCATTCTACGCTGTCAATCGCGTTCCTCTGCGGTCTTGAGCCACTCAGCTGTTCTGC
With B9, the binding signal in the data set with RARb:RXRa was -1.89 PBM z-score against 500 random probes; with THRa:RXRa, -0.75 PBM z-score against 500 random probes.

B10: NRC3_random_hg19_397_o1 (dsDNA)
DNA 1: GCGGTGTCGTGTGCCTGTGATCCCAGCTACGCAGGCGCGATTGACAGCGTAGAATGAAGG
DNA 2: CCTTCATTCTACGCTGTCAATCGCGCCTGCGTAGCTGGGATCACAGGCACACGACACCGC
For the molecule B10, the binding signal is -0.31 PBM z-score against 500 random probes in the data set with VDR:RXRa, 0.07 PBM z-score against 500 random probes with RARb:RXRa, -0.17 PBM z-score against 500 random probes in the data set with RXRa and -0.32 PBM z-score against 500 random probes with THRa:RXRa.

B11: NRC3_wobSeed13_DR0_G21C_o1 (dsDNA)
DNA 1: GCCGTCCAAGGTCAAGGTCACTGAAAGAGACTCGAAGCGATTGACAGCGTAGAATGAAGG
DNA 2: CCTTCATTCTACGCTGTCAATCGCTTCGAGTCTCTTTCAGTGACCTTGACCTTGGACGGC
Turning to B11, the binding signal with RARg:RXRa is 7.34 PBM z-score against 500 random probes; in the data set with RARb:RXRa, 5.97 PBM z-score against 500 random probes; with PPARa:RXRa, 6.7 PBM z-score against 500 random probes; with RXRa, 7.81 PBM z-score against 500 random probes; with THRa:RXRa, 4.85 PBM z-score against 500 random probes.

B12: NRC3_random_hg19_10_o1 (dsDNA)
DNA 1: GCAGCCTCCTGTTGGGTGGTCTGGTCCACCTCCTCAGCGATTGACAGCGTAGAATGAAGG
DNA 2: CCTTCATTCTACGCTGTCAATCGCTGAGGAGGTGGACCAGACCACCCAACAGGAGGCTGC
As to B12, the binding signal with RARg:RXRa is -1.37 PBM z-score against 500 random probes; in the data set with FXR:RXRa, -0.8 PBM z-score against 500 random probes; in the data set with RARb:RXRa, -0.72 PBM z-score against 500 random probes; with RXRa, -1.64 PBM z-score against 500 random probes; with THRa:RXRa, -1.74 PBM z-score against 500 random probes.

B13: NRC3_random_hg19_113_o1 (dsDNA)
DNA 1: GCGAGATTCCAGATGAGAACTGCTCAGCCAAACTCTGCGATTGACAGCGTAGAATGAAGG
DNA 2: CCTTCATTCTACGCTGTCAATCGCAGAGTTTGGCTGAGCAGTTCTCATCTGGAATCTCGC
For the molecule B13, the binding signal with RARb:RXRa was -0.57 PBM z-score against 500 random probes; with PPARa:RXRa, -0.69 PBM z-score against 500 random probes; in the data set with THRa:RXRa, -0.47 PBM z-score against 500 random probes.

B14: NRC3_wobSeed37_DR1_T23G_o1 (dsDNA)
DNA 1: GCCGTCCAAGGTCAAAGGTCAGGGAAGAGATGACGGGCGATTGACAGCGTAGAATGAAGG
DNA 2: CCTTCATTCTACGCTGTCAATCGCCCGTCATCTCTTCCCTGACCTTTGACCTTGGACGGC
On to B14, for which the binding signal was 6.26 PBM z-score against 500 random probes in the data set with RARb:RXRa, 7.45 PBM z-score against 500 random probes with PPARa:RXRa and 5.23 PBM z-score against 500 random probes with THRa:RXRa.

B15: NRC3_wobSeed109_DR4_G25A_o1 (dsDNA)
DNA 1: GCCGTCCAAGGTCATAGGAGGTCAATGAAGACAGATGCGATTGACAGCGTAGAATGAAGG
DNA 2: CCTTCATTCTACGCTGTCAATCGCATCTGTCTTCATTGACCTCCTATGACCTTGGACGGC
With B15, the binding signal was 7.06 PBM z-score against 500 random probes in the data set with LXRb:RXRa, 5.71 PBM z-score against 500 random probes with RARb:RXRa, 6.49 PBM z-score against 500 random probes with PPARa:RXRa and 5.65 PBM z-score against 500 random probes with THRa:RXRa.

B16: NRC3_wobSeed133_DR5_T19A_o1 (dsDNA)
DNA 1: GCCGTCCAAGGTCAATGCAAGGTCAGTGAAAGCATTGCGATTGACAGCGTAGAATGAAGG
DNA 2: CCTTCATTCTACGCTGTCAATCGCAATGCTTTCACTGACCTTGCATTGACCTTGGACGGC
As to B16, the binding signal was 8.21 PBM z-score against 500 random probes in the data set with RARg:RXRa, 5.87 PBM z-score against 500 random probes in the data set with RARb:RXRa and 5 PBM z-score against 500 random probes with THRa:RXRa.

B17: NRC3_random_hg19_371_o1 (dsDNA)
DNA 1: GCTTAAGGATGGACCATTGGCTAAAGCAATGTCAAAGCGATTGACAGCGTAGAATGAAGG
DNA 2: CCTTCATTCTACGCTGTCAATCGCTTTGACATTGCTTTAGCCAATGGTCCATCCTTAAGC
In the case of B17, the binding signal in the data set with LXRb:RXRa is -0.56 PBM z-score against 500 random probes; with THRa:RXRa, -0.29 PBM z-score against 500 random probes.

B18: NRC3_wobSeed101_DR4_C18A_o1 (dsDNA)
DNA 1: GCCCTTACGGGTCACTCAAGGTTATAGCATCGGAGTGCGATTGACAGCGTAGAATGAAGG
DNA 2: CCTTCATTCTACGCTGTCAATCGCACTCCGATGCTATAACCTTGAGTGACCCGTAAGGGC
Consider B18, for which the results for the binding signal with LXRb:RXRa and with THRa:RXRa were 6.18 PBM z-score against 500 random probes and 5.41 PBM z-score against 500 random probes, respectively.

B19: NRC3_wobSeed120_DR4_G20A_o1 (dsDNA)
DNA 1: GCCCGAGTAGGTTACGAGGAGGCATTCAGTGCGAATGCGATTGACAGCGTAGAATGAAGG
DNA 2: CCTTCATTCTACGCTGTCAATCGCATTCGCACTGAATGCCTCCTCGTAACCTACTCGGGC
As to B19, the binding signal with VDR:RXRa was 0.09 PBM z-score against 500 random probes; in the data set with THRa:RXRa it was 0.17 PBM z-score against 500 random probes.

B20: NRC3_random_hg19_180_o1 (dsDNA)
DNA 1: GCCAAGATAACCAGCTTATCTATCAGTTGGAGCAGAGCGATTGACAGCGTAGAATGAAGG
DNA 2: CCTTCATTCTACGCTGTCAATCGCTCTGCTCCAACTGATAGATAAGCTGGTTATCTTGGC
B20: the binding signal with LXRb:RXRa is -0.9 PBM z-score against 500 random probes; with THRa:RXRa, -0.68 PBM z-score against 500 random probes.
